B1: OR4K15 (parent)
chain: GUUAACGGUCAUAGGCCAUGGAAACUAGGAGCACCAUUUCGCUGCCAGUGAAGAAAUGAACAAAGAAAAUCUGGGCCAGGCAGGCAUCAAAAGAAAUAGUCUUGCGCUCAACCAGAAAGUCUGUAAUCAUUUUAAGGGUA

Variants of: B1
Experiment: self-cleavage, relative activity (ratio to wild type); higher = more cleavage; in vitro, sequencing; the parent is a self-cleaving ribozyme
U39G C105A showed a self-cleavage of 0.16.
C40A U102C gave a self-cleavage of 1.98.
For U39C A134G, the self-cleavage was 1.83.
In the case of G44A U127C, the self-cleavage is reported as 1.58.
U43A U122C showed a self-cleavage of 1.85.
For C40U A62C, the self-cleavage was 1.11.
Work on C40U A62G yielded a self-cleavage of 1.2.
With U43A A47G the self-cleavage was 1.12.
Work on G41C A135G yielded a self-cleavage of 1.81.
In the case of C42U A91G, the self-cleavage is reported as 1.09.
U39C G106U showed a self-cleavage of 0.02.
For U39C G58A, the self-cleavage was 0.67.
For G41A U122G, the self-cleavage was 1.51.
In the case of U39C A91U, the self-cleavage is reported as 1.59.
Work on U39C G50U yielded a self-cleavage of 1.89.
With U43C A140U the self-cleavage was 1.18.
With U39G A95G the self-cleavage was 1.81.
U39C A140C showed a self-cleavage of 1.79.
For C45A A117G, the self-cleavage was 2.96.
U39C G123A showed a self-cleavage of 2.04.
In the case of U43A C105U, the self-cleavage is reported as 0.1.
In the case of G41A U87C, the self-cleavage is reported as 0.63.
Work on U43A G44A yielded a self-cleavage of 1.06.
U43C A89G showed a self-cleavage of 2.04.
U43C U124C gave a self-cleavage of 1.13.
For U43A A55U, the self-cleavage was 2.41.
Work on U43A A55G yielded a self-cleavage of 0.35.
Variant U43A A116G has a self-cleavage of 0.55.
With G41A U130G the self-cleavage was 1.4.
Variant C40A A64G has a self-cleavage of 2.37.
U39C U70C showed a self-cleavage of 0.95.
G41A A67G showed a self-cleavage of 1.02.
Work on U43C U132C yielded a self-cleavage of 1.27.
U43A A86G showed a self-cleavage of 1.6.
With C40A A135G the self-cleavage was 1.29.
Variant U39C C76U has a self-cleavage of 0.19.
U43A A68U gave a self-cleavage of 1.7.
U39C U127A gave a self-cleavage of 2.26.
For U39G A67U, the self-cleavage was 1.13.
Variant U43A A110U has a self-cleavage of 2.05.
Variant U39C A126U has a self-cleavage of 1.06.
In the case of U39C A126G, the self-cleavage is reported as 1.18.
For U43A A63G, the self-cleavage was 2.21.
G44U A110G gave a self-cleavage of 0.18.
With U43C A78G the self-cleavage was 0.26.
With U43C A78C the self-cleavage was 0.29.
For U39C C71U, the self-cleavage was 0.29.
Work on U43C A67G yielded a self-cleavage of 1.39.
Work on U39C U102C yielded a self-cleavage of 2.19.
For C45A A114G, the self-cleavage was 0.06.
With U43A U108C the self-cleavage was 0.02.
U43G A126G gave a self-cleavage of 0.92.
In the case of G41A U103C, the self-cleavage is reported as 1.76.
For G44A A78G, the self-cleavage was 0.24.
G44U G137U gave a self-cleavage of 1.87.
Variant U39C A55G has a self-cleavage of 1.66.
U43G A140G showed a self-cleavage of 2.62.
C42U A94G gave a self-cleavage of 2.27.
U43C A62U showed a self-cleavage of 2.19.
U43C A62C showed a self-cleavage of 1.57.
Variant U43C A62G has a self-cleavage of 1.29.
U43A U133C showed a self-cleavage of 2.13.
Work on U43C A86C yielded a self-cleavage of 1.4.
With G44A A134G the self-cleavage was 1.84.
With G44A A89G the self-cleavage was 1.14.
G44A A89U gave a self-cleavage of 1.59.
Variant U43C C105A has a self-cleavage of 0.02.
With U43C A117G the self-cleavage was 1.75.
U43C A117U gave a self-cleavage of 1.17.
C42U A96G gave a self-cleavage of 2.35.
Variant U43A U49A has a self-cleavage of 0.87.
U39C U49C gave a self-cleavage of 0.91.
Variant G41A U108C has a self-cleavage of 0.01.
With U43C A52U the self-cleavage was 1.51.
In the case of U43C A52G, the self-cleavage is reported as 1.49.
For C45A G48A, the self-cleavage was 1.5.
For C45A A91G, the self-cleavage was 0.61.
Work on U39C U120C yielded a self-cleavage of 0.95.
In the case of C40A U122C, the self-cleavage is reported as 1.07.
For U39C A116C, the self-cleavage was 0.07.
U39C A116G showed a self-cleavage of 0.83.
U39C U130C gave a self-cleavage of 1.12.
Work on C42U A51U yielded a self-cleavage of 1.45.
With G41A A96G the self-cleavage was 1.7.
For U43A A64G, the self-cleavage was 1.49.
Work on G44A A68G yielded a self-cleavage of 1.81.
C42U A117G gave a self-cleavage of 2.46.
C45G A90G gave a self-cleavage of 1.2.
In the case of G41C A98G, the self-cleavage is reported as 0.57.
For U43A U70A, the self-cleavage was 0.37.
In the case of G41C A86U, the self-cleavage is reported as 0.57.
U43C A69U gave a self-cleavage of 1.74.
For U43C A116C, the self-cleavage was 0.07.
Work on C40U A90G yielded a self-cleavage of 1.72.
Variant C40U G99A has a self-cleavage of 0.32.
U43A A56C showed a self-cleavage of 0.8.
For U43A A56G, the self-cleavage was 1.86.
In the case of C42G A95G, the self-cleavage is reported as 1.87.
Variant C45A U131C has a self-cleavage of 0.26.
In the case of U43C A60G, the self-cleavage is reported as 1.43.
U39C A114G showed a self-cleavage of 0.72.
For U43C C45U, the self-cleavage was 1.6.
Work on U43C C45A yielded a self-cleavage of 1.19.
Variant C40A A94G has a self-cleavage of 2.28.
G44U U70A gave a self-cleavage of 0.
Work on U43C C109A yielded a self-cleavage of 0.36.
With C45G U100C the self-cleavage was 1.37.
Work on U43A G53A yielded a self-cleavage of 1.84.
Work on U43C A68U yielded a self-cleavage of 1.74.
With U43C A68G the self-cleavage was 1.21.
With C45U A67G the self-cleavage was 1.94.
Variant G44A U133C has a self-cleavage of 1.78.
In the case of G41A G106A, the self-cleavage is reported as 0.01.
Work on C40U A69G yielded a self-cleavage of 0.94.
Variant U43C A134U has a self-cleavage of 2.04.
C40A U97C gave a self-cleavage of 1.43.
In the case of U43A A98G, the self-cleavage is reported as 1.07.
U43C A129G showed a self-cleavage of 1.1.
U39C U100A gave a self-cleavage of 0.56.
Variant U39C U100C has a self-cleavage of 2.44.
U39C A67G showed a self-cleavage of 1.24.
Work on U39C A67U yielded a self-cleavage of 1.9.
U43A U57A showed a self-cleavage of 1.79.
U39C A60G gave a self-cleavage of 1.42.
With U43A G83A the self-cleavage was 1.97.
With U43C U57C the self-cleavage was 0.31.
With C45A U120A the self-cleavage was 2.12.
In the case of C45A A116G, the self-cleavage is reported as 1.32.
Work on U43A A118U yielded a self-cleavage of 0.9.
U43A A118G gave a self-cleavage of 1.25.
Work on U43A A134G yielded a self-cleavage of 1.81.
U43C U100A gave a self-cleavage of 0.67.
For U43C U100G, the self-cleavage was 1.75.
U39C U133C gave a self-cleavage of 2.27.
Work on U43A A117U yielded a self-cleavage of 1.18.
U43A A117G showed a self-cleavage of 2.17.
C40U U100C gave a self-cleavage of 1.83.
U43C A82U gave a self-cleavage of 0.18.
U43C U72C showed a self-cleavage of 0.07.
With U43C U72A the self-cleavage was 0.4.
U43A A60U showed a self-cleavage of 1.88.
For U39C A125U, the self-cleavage was 1.8.
U39A U130C gave a self-cleavage of 1.09.
Work on U43A C128A yielded a self-cleavage of 0.8.
Variant G44U A63G has a self-cleavage of 1.46.
U39C A111C gave a self-cleavage of 0.01.
With U39C A111G the self-cleavage was 0.02.
Work on U43A A140G yielded a self-cleavage of 2.11.
G41A A86G gave a self-cleavage of 1.05.
U39C C45G showed a self-cleavage of 1.5.
Work on U39C C45A yielded a self-cleavage of 0.46.
U39C C45U gave a self-cleavage of 1.46.
In the case of U39C A66U, the self-cleavage is reported as 1.28.
U43A A66G gave a self-cleavage of 1.96.
Variant U43A A66U has a self-cleavage of 1.62.
With U43A A91G the self-cleavage was 0.55.
In the case of C40A A68G, the self-cleavage is reported as 1.61.
For G44A A59G, the self-cleavage was 1.56.
Variant C42G U108C has a self-cleavage of 0.01.
For C40U A116C, the self-cleavage was 0.08.
With U43C G48A the self-cleavage was 1.32.
Variant G44U A135G has a self-cleavage of 1.6.
Work on U43G A116G yielded a self-cleavage of 0.96.
For C45A C101U, the self-cleavage was 0.48.
In the case of U43A A94C, the self-cleavage is reported as 1.01.
Variant C40G U72C has a self-cleavage of 0.41.
U43A G65A showed a self-cleavage of 2.07.
